Results taken from patent publication US20160168234A1 (published 2016).
Ends that are not written are not given here.

Experiments:
Experiment in all cases: ELISA on biotinylated peptides of the alanine library on streptavidin plates
[1] = molecular target: T1, peptide A16 of the second library (Aβ12-20 with aa 16 changed to alanine) (also: biotinylated, position not given here)
T1 peptide: VHHQALVFF
Description: (§1) One library comprised a total of 33 biotinylated peptides covering the complete amino acid (aa) sequence of Aβ1-42 (produced by Mimotopes and purchased from ANAWA Trading SA), the second library contains biotinylated peptides using peptide 12 (aa12-20 of Aβ) from the first peptide library and substituting each as in the sequence by an alanine (see table 3 below), and the third library contains biotinylated peptides 13, 14, or 15 (aa 13-21, 14-22 or 15-23 of Aβ) and substituting in each case the last amino acids to an alanine or to a glycine for as 21 which is already an alanine (see table 4 below). A biotinylated complete Aβ1-42 peptide was used as positive control (Bachem). Epitope mapping was done according to the manufacturer's (Mimotopes) instructions. Briefly, Streptavidin coated plates (NUNC) were blocked with 0.1% BSA in PBS overnight at 4° C. After washing with PBS-0.05% Tween 20, plates were coated for 1 hour at RT with the different peptides from the library, diluted in 0.1% BSA, 0.1% Sodium Azide in PBS to a final concentration of 10 μM. […] Plates were washed again and incubated with alkaline phosphatase conjugated goat anti human IgG for 1 h at RT. After final washing, plates were incubated with phosphatase substrate (pNPP) and read at 405 nm using an ELISA plate reader.

[2] = molecular target: T2, peptide A20 of the second library (Aβ12-20 with aa 20 changed to alanine) (also: biotinylated, position not given here)
T2 peptide: VHHQKLVFA
Description: as §1

[3] = molecular target: T3, peptide A17 of the second library (Aβ12-20 with aa 17 changed to alanine) (also: biotinylated, position not given here)
T3 peptide: VHHQKAVFF
Description: as §1

[4] = molecular target: T4, peptide A19 of the second library (Aβ12-20 with aa 19 changed to alanine) (also: biotinylated, position not given here)
T4 peptide: VHHQKLVAF
Description: as §1

Measured: binding result

B1: humanized anti-human amyloid beta monoclonal antibody hC2 (antibody, human IgG4 S228P, kappa)
heavy: not shown
light: DIVMTQSPLSLPVTPGEPASISCRSSQSLVYSNGDTYLHWYLQKPGQSPQLLIYKVSNRFSGVPDRFSGSGSGTDFTLKISRVEAEDVGVYYCSQSTHVPWTFGQGTKVEIKRTVAAPSVFIFPPSDEQLKSGTASVVCLLNNFYPREAKVQWKVDNALQSGNSQESVTEQDSKDSTYSLSSTLTLSKADYEKHKVYACEVTHQGLSSPVTKSFNRGEC
notes: also called humanized antibody C2; humanized C2
no binding (tested: 200 ng/ml): all assays above
